{"source": "patent US20190015518A1", "about": "“DRUG DELIVERY COMPOSITIONS AND METHODS” (priority 2016, published 2019)", "experiment": "Microscopic urinalysis of a healthy dog given 1.5 mg/kg on day 1 and 2.0 mg/kg on day 70, sub-mucosa", "type": "in vivo", "procedure": "Before each dose, the dog was examined by clinical chemistry, hematology, and urinalysis. Additional examinations of clinical chemistry and hematology were performed on days 7, 14, and 42 after the first dose. Additional tests of urinalysis were performed on days 7 and 14 after the first dose. The potential drug-induced toxicities were monitored for 56 days after the second dose. Specifically, clinical chemistry and urinalysis were performed on days 7, 14, 21, and 56, and hematology was performed on days 7, 14, and 56 after the second dose to evaluate the tolerability and toxicity of the formulation.\nMicroscopic urinalyses were performed at pre- and post-dose for both injections. The injections were given via the sub-mucosa in the mouth.", "data": [{"substance": "HA-cis-[Pt(NH3)2(N^α-Acetyl-L-Lysine)] [75HA-Lys-Pt]", "values": [{"measurement": "Cast", "setting": "2 mg/kg, 7 days after", "result": "Rare triple"}, {"measurement": "Trpl Ph Crystal", "setting": "2 mg/kg, 7 days after", "result": "Rare"}, {"measurement": "urine Red Blood Cells", "setting": "2 mg/kg, 14 days after", "result": "16-30"}, {"measurement": "Bac-U", "setting": "2 mg/kg, 21 days after", "result": "Few"}, {"measurement": "Trpl Ph Crystal", "setting": "2 mg/kg, 21 days after", "result": "Rare triple"}, {"measurement": "urine Red Blood Cells", "setting": "2 mg/kg, 21 days after", "result": "1-5"}, {"measurement": "Bac-U", "setting": "2 mg/kg, 56 days after", "result": "Rare"}, {"measurement": "Trpl Ph Crystal", "setting": "2 mg/kg, 56 days after", "result": "Few"}, {"measurement": "urine Red Blood Cells", "setting": "2 mg/kg, 56 days after", "result": "TNTC"}, {"measurement": "Bac-U", "setting": "[…], 7 days after", "result": "Moderate"}, {"measurement": "Trpl Ph Crystal", "setting": "[…], 7 days after", "result": "Few"}, {"measurement": "Bac-U", "setting": "[…], 14 days", "result": "Few"}]}]}
